IntAct's records for PubMed 15350535

Target: PAK1, Q13153-2
Sequence (Q13153 other isoform, or with tags, fused parts or gaps): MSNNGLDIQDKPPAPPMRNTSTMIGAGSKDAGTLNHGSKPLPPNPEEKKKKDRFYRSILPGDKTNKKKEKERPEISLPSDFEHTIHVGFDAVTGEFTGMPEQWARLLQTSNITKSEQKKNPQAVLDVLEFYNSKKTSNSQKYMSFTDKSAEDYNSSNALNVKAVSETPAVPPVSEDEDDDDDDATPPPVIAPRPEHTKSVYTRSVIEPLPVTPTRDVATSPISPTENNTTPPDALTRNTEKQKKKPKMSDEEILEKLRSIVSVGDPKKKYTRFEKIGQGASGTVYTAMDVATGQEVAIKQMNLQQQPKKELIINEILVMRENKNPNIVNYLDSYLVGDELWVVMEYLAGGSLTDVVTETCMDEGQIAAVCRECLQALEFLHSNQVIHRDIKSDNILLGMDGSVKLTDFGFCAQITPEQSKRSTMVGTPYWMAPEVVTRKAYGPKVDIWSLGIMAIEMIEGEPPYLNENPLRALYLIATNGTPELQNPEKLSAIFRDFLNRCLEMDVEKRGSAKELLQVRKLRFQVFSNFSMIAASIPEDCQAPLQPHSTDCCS

effect of a mutation on the interaction: decreasing interaction
Substance: Rho-related GTP-binding protein RhoU (Homo sapiens), Q7L0Q8 T63N
